Tests used:
[1] = target: Aβ1-42 aggregates (Homo sapiens, UniProt P05067); experiment: biochemical
Experimental: Dissolving Aβ1-42 solid in PBS (PH 7.4) at a concentration of 0.25 mg/ml (55.38 uM), incubating in 37° C. water bath on a shaker for 42 h.
Preparing solutions (containing 10% DMF), containing the conjugate formed by angiopep-2 and FITC (10 uM) as well as Aβ1-42 aggregates (0, 5, 10 uM) or BSA (45 ug/mL), respectively; incubating the mixture solution at 37° C. for 30 minutes.
Preparing solutions (containing 10% DMF), containing the conjugate formed by angiopep-2 and FITC (0-3.75 uM) as well as Aβ1-42 aggregates (2.2 uM) or BSA (10 uM), respectively, incubating the mixture solution at 37° C. for 30 minutes.
Detecting the mixture solutions prepared above for their emission spectrum with fluorescence spectrophotometer, emission wavelength: 333 nm, maximum emission wavelength: 531 nm, in the range of 500-600 nm.
Plotting by using GraphPad Prism 5.0 (GraphPad Software, Inc., La Jolla, Calif., USA) and calculating equilibrium dissociation constant.

[2] = system: APP transgenic mice's brains; experiment: In vivo near-infrared imaging of APP transgenic mouse after intravenous injection; settings: 13 mg/kg intravenous injection
Experimental: (§1) Optical in vivo imaging study was performed on IVIS imaging system, an optical imaging system from Caliper Life Sciences for imaging living body with an excitation filter set as Cy5.5, and emission spectrum band-pass filter as 640 nm. Before imaging, the mice were anaesthetized with a mixture gas of isoflurane and oxygen, and placed on an imaging plate with its face downward. White light photography (exposure time: 0.2 s) and near-infrared fluorescent imaging (exposure time: 5 s) were performed under the same field of vision (FOV) (FOV=12.5 cm, f/stop=1, Bin=1) at time points including before injection and several selected time points after intravenous injection. Each mouse received an injection dose of 13 mg/kg. White light photographs and near-infrared fluorescent images were superimposed to determine the size of intracranial portion. Finally, the imaging views were processed by using Living Image Software (Caliper Life Sciences).

[3] = system: amyloid deposits in APP transgenic mouse brain; experiment: Fluorescent microscopy of APP transgenic mouse's brain sections after intravenous injection of the Cy5.5 conjugate; assay type: in vivo; settings: 13 mg/kg intravenous, brain removed after 30 minutes
Experimental: 30 minutes after intravenous administration (13 mg/kg), the mice were sacrificed, and then their brains were removed and frozen in liquid nitrogen. […] The brain was cut into sections of about 25 m in thickness using a frozen tissue microtome (Lecia CM1950). The sections were then placed on a fluorescent microscope (IX8, OLYMPUS) for observation and photography.

[4] = system: APP transgenic mice's brains; settings: mouse, in vivo
Experimental: as §1

Sequence of Aβ1-42 aggregates (P05067 672-713 limits assumed): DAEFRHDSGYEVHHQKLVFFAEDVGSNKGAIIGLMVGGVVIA
Sequence of amyloid deposits in APP transgenic mouse brain (P05067 672-711 limits assumed): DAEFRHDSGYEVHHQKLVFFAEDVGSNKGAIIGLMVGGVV

Compound | Kd [1] | passing through BBB and aggregation in brain in vivo ([2]; APP transgenic mice) | labeling of amyloid deposits in brain in vivo [3] | time after which cleared from brain [4] | aggregation in brain (near-infrared imaging) ([2]; APP mice)
C[C@@H](O)[C@H](NC(=O)CCCCCNC(=S)Nc1ccc2c(c1)C(=O)OC21c2ccc(O)cc2Oc2cc(O)ccc21)C(=O)N[C@@H](Cc1ccccc1)C(=O)N[C@@H](Cc1ccccc1)C(=O)N[C@@H](Cc1ccc(O)cc1)C(=O)NCC(=O)NCC(=O)N[C@@H](CO)C(=O)N[C@@H](CCCNC(=N)N)C(=O)NCC(=O)N[C@@H](CCCCN)C(=O)N[C@@H](CCCNC(=N)N)C(=O)N[C@@H](CC(N)=O)C(=O)N[C@@H](CC(N)=O)C(=O)N[C@@H](Cc1ccccc1)C(=O)N[C@@H](CCCCN)C(=O)N[C@H](C(=O)N[C@@H](CCC(=O)O)C(=O)N[C@@H](CCC(=O)O)C(=O)N[C@@H](Cc1ccc(O)cc1)C(=O)O)[C@@H](C)O [conjugate formed by angiopep-2 and FITC] | 676 nM | can pass through BBB and aggregate in APP transgenic mice's brains in vivo |  |  | 
conjugate formed by angiopep-2 and Cy5.5: angiopep-2 (TFFYGGSRGKRNNFKTEEY) linked N-terminally via Acp to Cy5.5; near-infrared imaging conjugate, MW 2880.24 Da |  |  | can bind to and label the amyloid deposits | 20 h | aggregated in APP mice's brains

Reference: US10258699B2, “Angiopep and derivatives thereof for imaging amyloids” (University Of Science And Technology Of China, priority 2014, dated 2019)
